Patent publication US20180305431A1 (Novo Nordisk, published 2018)
One block for each molecule: values may come before it.

Columns and labels:
[1] = biological target: insulin receptor on primary rat adipocytes (rat) (UniProt P15127); experiment: cell-based or functional assay
[2] = biological target: membrane-associated human IR-A (plasma membranes of BHK cells stably transfected with the human IR-A insert) (human) (UniProt P06213); experiment: SPA competition vs [125I-A14Y]-human insulin, membrane hIR-A, 0.1% HSA
[3] = biological target: membrane-associated human IR-B (plasma membranes of BHK cells stably transfected with the human IR-B insert) (human) (UniProt P06213); experiment: SPA competition vs [125I-A14Y]-human insulin, membrane hIR-B, 0.1% HSA
[4] = biological target: T1, solubilised human IR-A (semipurified by wheat germ agglutinin chromatography from baby hamster kidney (BHK) … (human, UniProt P06213-2 28-1370)); experiment: SPA competition vs [125I-A14Y]-human insulin, solubilised hIR-A, 0% HSA
T1 construct: mature; Detergent-solubilised holoreceptor captured by anti-IR mouse antibody 83-7 on SPA beads; the precursor is processed into alpha and beta chains; also called hIRA; human insulin receptor (IR), A isoform
T1 sequence (P06213 other isoform, or with tags, fused parts or gaps limits assumed): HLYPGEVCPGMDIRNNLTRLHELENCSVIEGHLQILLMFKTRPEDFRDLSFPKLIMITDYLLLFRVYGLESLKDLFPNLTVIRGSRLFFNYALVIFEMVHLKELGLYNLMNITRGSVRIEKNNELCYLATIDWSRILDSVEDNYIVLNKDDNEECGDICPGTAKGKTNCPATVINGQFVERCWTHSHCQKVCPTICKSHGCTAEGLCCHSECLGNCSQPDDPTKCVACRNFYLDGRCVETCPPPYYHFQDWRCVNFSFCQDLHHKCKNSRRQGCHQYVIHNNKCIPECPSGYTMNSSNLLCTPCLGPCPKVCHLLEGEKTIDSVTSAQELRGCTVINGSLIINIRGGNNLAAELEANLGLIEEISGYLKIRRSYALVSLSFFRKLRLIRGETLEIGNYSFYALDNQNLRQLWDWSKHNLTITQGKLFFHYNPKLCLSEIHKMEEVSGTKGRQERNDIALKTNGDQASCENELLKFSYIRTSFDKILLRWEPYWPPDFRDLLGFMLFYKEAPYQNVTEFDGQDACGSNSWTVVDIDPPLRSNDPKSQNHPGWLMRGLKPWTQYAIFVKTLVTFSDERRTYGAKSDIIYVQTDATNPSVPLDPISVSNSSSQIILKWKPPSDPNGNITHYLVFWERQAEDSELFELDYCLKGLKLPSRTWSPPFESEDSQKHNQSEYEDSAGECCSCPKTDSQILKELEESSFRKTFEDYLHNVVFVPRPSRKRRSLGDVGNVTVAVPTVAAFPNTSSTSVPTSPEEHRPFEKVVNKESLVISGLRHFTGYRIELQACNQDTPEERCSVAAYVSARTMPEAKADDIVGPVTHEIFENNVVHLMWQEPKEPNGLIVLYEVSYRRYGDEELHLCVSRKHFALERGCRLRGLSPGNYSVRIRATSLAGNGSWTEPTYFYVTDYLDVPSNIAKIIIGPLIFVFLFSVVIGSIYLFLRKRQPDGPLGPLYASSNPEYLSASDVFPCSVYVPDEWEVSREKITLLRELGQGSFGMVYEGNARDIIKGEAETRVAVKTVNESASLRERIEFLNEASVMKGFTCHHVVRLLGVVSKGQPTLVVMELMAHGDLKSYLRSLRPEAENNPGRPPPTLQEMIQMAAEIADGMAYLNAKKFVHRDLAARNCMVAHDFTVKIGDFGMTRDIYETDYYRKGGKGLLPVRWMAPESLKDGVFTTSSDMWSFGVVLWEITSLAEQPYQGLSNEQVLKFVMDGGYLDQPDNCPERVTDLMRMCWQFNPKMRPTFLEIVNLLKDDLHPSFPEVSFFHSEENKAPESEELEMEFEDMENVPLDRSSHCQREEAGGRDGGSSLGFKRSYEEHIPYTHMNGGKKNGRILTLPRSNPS

[5] = biological target: T2, membrane-associated human IGF-1R (plasma membranes of BHK cells stably transfected with the human IGF-IR … (human, UniProt P08069 31-1367)); experiment: SPA competition vs [125I-Tyr31]-human IGF-1, membrane hIGF-1R, 0.1% HSA
T2 construct: whole, on cells; Receptor in purified plasma membranes, not on intact cells; also called hIGF1R; insulin-like growth factor 1 receptor
T2 sequence (P08069 31-1367): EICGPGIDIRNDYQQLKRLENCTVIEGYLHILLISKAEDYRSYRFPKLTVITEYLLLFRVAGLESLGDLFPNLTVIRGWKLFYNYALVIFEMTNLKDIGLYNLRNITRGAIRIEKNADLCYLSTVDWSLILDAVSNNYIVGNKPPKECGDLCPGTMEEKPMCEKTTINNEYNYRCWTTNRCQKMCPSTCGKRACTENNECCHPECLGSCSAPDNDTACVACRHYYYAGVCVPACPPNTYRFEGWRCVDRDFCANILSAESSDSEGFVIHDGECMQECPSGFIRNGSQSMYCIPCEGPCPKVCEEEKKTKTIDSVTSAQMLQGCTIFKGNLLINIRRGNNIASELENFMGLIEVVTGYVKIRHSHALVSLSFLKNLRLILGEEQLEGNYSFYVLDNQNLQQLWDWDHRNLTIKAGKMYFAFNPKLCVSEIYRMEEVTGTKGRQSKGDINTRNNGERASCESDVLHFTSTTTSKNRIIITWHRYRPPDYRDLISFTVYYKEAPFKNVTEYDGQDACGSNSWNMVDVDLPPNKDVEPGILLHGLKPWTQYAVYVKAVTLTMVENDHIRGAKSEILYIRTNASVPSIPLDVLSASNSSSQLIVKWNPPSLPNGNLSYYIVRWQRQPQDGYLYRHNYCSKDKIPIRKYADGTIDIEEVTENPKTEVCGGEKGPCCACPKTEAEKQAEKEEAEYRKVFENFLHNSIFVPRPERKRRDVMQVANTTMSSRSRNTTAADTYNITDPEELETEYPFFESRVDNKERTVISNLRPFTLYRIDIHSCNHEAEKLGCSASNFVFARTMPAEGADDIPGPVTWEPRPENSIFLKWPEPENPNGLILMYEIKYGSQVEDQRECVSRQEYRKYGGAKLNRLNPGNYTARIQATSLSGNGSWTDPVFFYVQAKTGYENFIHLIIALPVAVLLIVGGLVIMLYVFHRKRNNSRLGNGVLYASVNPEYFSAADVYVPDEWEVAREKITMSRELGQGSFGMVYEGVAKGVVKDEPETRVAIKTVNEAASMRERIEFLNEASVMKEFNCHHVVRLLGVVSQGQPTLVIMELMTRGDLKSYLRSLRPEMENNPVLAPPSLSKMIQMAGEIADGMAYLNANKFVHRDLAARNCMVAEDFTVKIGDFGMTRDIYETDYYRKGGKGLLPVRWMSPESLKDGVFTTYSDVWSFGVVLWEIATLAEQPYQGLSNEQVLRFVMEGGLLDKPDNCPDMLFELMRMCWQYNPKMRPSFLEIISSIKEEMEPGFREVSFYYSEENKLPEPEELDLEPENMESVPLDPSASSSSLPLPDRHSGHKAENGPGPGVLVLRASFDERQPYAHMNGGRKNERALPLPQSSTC
Method: The relative binding affinity for either of the membrane-associated human IR-A, IR-B or IGF-1R is determined by competition binding in a SPA setup. IR assays are performed in duplicate in 96-well OptiPlates (Perkin-Elmer Life Sciences). […] Assays are terminated by centrifugation of the plate at 2000 rpm for 2 minutes and bound radioactivity quantified by counting on a TopCount NXT (Perkin-Elmer Life Sciences).
IGF-1R assays are conducted essentially as for the IR binding assays except that membrane-associated IGF-1R and 50 pM [¹²5-Tyr31]-human IGF-1 were employed.

[6] = biological target: T1, solubilised human IR-A (semipurified by …); experiment: SPA competition vs [125I-A14Y]-human insulin, solubilised hIR-A, 1.5% HSA

Sequence of insulin receptor on primary rat adipocytes (rat) (P15127 27-1383): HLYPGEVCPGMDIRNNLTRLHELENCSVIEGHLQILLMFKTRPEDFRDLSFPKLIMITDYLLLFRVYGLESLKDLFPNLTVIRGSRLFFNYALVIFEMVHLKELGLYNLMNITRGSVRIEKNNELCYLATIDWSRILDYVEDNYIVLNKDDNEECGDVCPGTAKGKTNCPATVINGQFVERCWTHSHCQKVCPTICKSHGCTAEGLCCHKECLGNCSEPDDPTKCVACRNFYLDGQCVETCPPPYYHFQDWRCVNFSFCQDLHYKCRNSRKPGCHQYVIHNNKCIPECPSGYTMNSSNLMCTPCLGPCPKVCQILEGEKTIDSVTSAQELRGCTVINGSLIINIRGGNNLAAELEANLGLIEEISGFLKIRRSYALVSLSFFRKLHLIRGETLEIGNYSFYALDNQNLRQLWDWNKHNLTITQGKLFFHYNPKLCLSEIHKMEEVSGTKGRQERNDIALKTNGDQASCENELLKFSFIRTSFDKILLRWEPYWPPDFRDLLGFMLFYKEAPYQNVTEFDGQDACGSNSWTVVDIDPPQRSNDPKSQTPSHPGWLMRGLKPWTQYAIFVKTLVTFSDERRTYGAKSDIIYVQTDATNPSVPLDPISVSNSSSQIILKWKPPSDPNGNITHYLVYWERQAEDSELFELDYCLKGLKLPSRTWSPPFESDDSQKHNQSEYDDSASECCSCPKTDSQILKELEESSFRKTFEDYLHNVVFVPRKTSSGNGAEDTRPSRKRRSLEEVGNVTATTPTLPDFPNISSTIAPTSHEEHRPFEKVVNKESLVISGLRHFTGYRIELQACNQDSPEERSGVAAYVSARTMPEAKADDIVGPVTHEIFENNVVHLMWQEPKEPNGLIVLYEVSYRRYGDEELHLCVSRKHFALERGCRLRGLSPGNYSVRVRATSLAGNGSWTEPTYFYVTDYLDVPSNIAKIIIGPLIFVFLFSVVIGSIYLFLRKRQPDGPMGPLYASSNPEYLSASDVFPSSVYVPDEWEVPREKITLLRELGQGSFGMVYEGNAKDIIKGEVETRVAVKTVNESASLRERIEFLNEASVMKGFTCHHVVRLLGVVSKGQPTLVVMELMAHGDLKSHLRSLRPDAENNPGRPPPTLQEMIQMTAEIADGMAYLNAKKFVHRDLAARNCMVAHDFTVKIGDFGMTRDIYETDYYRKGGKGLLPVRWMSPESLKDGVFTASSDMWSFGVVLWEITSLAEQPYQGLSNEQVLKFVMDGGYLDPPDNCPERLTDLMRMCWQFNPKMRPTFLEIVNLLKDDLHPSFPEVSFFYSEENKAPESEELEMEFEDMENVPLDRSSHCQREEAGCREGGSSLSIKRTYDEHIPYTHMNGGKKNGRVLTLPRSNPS

- Lipogenesis 1% HSA (% rel to HI) [1]: 21.3 % rel to HI
- relative binding affinity (% rel to HI) [2]: 93.9 % rel to HI
- relative binding affinity (% rel to HI) [3]: 108 % rel to HI
Molecule: A22K(N(eps)tetradecanedioyl-gGlu-2xOEG), B3E, B28D, B29R, desB30 human insulin (ligand)

- Lipogenesis 1% HSA (% rel to HI) [1]: 31.4 % rel to HI
- relative binding affinity (% rel to HI) [2]: 76.5 % rel to HI
- relative binding affinity (% rel to HI) [3]: 163 % rel to HI
Molecule: A22K(N(eps)tetradecanedioyl-4xgGlu), B3Q, B26E, B29R, desB30 human insulin (ligand)

- Lipogenesis 1% HSA (% rel to HI) [1]: 18.2 % rel to HI
- relative binding affinity (% rel to HI) [2]: 48.3 % rel to HI
- relative binding affinity (% rel to HI) [3]: 82.4 % rel to HI
Molecule: A22K(N(eps)tetradecanedioyl-4xgGlu), B3E, B26E, B27E, B28E, B29R, desB30 human insulin (ligand)

- Lipogenesis 1% HSA (% rel to HI) [1]: 2.6 % rel to HI
- relative binding affinity (% rel to HI) [2]: 32.1 % rel to HI
- relative binding affinity (% rel to HI) [3]: 40.7 % rel to HI
Molecule: A22K(N(eps)hexadecanedioyl-gGlu-2xOEG), B3E, B28D, B29R, desB30 human insulin (ligand)

- Lipogenesis 1% HSA (% rel to HI) [1]: 23.9 % rel to HI
- relative binding affinity (% rel to HI) [2]: 103 % rel to HI
- relative binding affinity (% rel to HI) [3]: 159 % rel to HI
Molecule: A22K(N(eps)tetradecanedioyl-gGlu-2xOEG), B3E, B27E, B28E, B29R, desB30 human insulin (ligand)

- Lipogenesis 1% HSA (% rel to HI) [1]: 31.2 % rel to HI
- relative binding affinity (% rel to HI) [2]: 78.5 % rel to HI
- relative binding affinity (% rel to HI) [3]: 133 % rel to HI
Molecule: A22K(N(eps)tetradecanedioyl-4xgGlu), B3Q, B26E, B28E, B29R, desB30 human insulin (ligand)

- Lipogenesis 1% HSA (% rel to HI) [1]: 27 % rel to HI
- relative binding affinity (% rel to HI) [2]: 64.3 % rel to HI
- relative binding affinity (% rel to HI) [3]: 77.6 % rel to HI
Molecule: A22K(N(eps)tetradecanedioyl-4xgGlu), B3E, B27P, B28E, B29R, desB30 human insulin (ligand)

- Lipogenesis 1% HSA (% rel to HI) [1]: 20.5 % rel to HI
- relative binding affinity (% rel to HI) [2]: 68 % rel to HI
- relative binding affinity (% rel to HI) [3]: 111 % rel to HI
Molecule: A22K(N(eps)tetradecanedioyl-4xgGlu), B3E, B26E, B28E, B29R, desB30 human insulin (ligand)

- relative binding affinity (% rel to HI) [2]: 34.4 % rel to HI
- relative binding affinity (% rel to HI) [3]: 40.2 % rel to HI
Molecule: A22K(N(eps)hexadecanedioyl-gGlu-2xOEG), B3E, B26E, B29R, desB30 human insulin (ligand)

- Lipogenesis 1% HSA (% rel to HI) [1]: 29.6 % rel to HI
- relative binding affinity (% rel to HI) [2]: 57.2 % rel to HI
- relative binding affinity (% rel to HI) [3]: 93.3 % rel to HI
Molecule: A22K(N(eps)tetradecanedioyl-4xgGlu), B3E, B26E, B27E, B28R, desB29, desB30 human insulin (ligand)

- Lipogenesis 1% HSA (% rel to HI) [1]: 23.7 % rel to HI
- relative binding affinity (% rel to HI) [2]: 45.1 % rel to HI
- relative binding affinity (% rel to HI) [3]: 70 % rel to HI
Molecule: A22K(N(eps)tetradecanedioyl-4xgGlu), B3E, B27E, B28E, B29P, B30R human insulin (ligand)

- Lipogenesis 1% HSA (% rel to HI) [1]: 3.7 % rel to HI
- relative binding affinity (% rel to HI) [2]: 27.5 % rel to HI
- relative binding affinity (% rel to HI) [3]: 32.1 % rel to HI
Molecule: A22K(N(eps)hexadecanedioyl-4xgGlu), B3E, B27P, B28E, B29R, desB30 human insulin (ligand)

- Lipogenesis 1% HSA (% rel to HI) [1]: 59 % rel to HI
- relative binding affinity (% rel to HI) [2]: 78.5 % rel to HI
- relative binding affinity (% rel to HI) [3]: 143 % rel to HI
- relative binding affinity (% rel to HI) [4]: 229 % rel to HI
- relative binding affinity (% rel to HI) [5]: 5.7 % rel to HI
- relative binding affinity (% rel to HI) [6]: 182 % rel to HI
B1: A8R, A22K(N(eps)tetradecanedioyl-4xgGlu), B3E, B26E, B28E, B29R, desB30 human insulin (ligand)
chain 1: GIVEQCCRSICSLYQLENYCNK
chain 2: FVEQHLCGSHLVEALYLVCGERGFFETER
modifications: not fully specified; Lys A22 acylated on N(eps) with tetradecanedioyl-4xgGlu
notes: Two-chain acylated insulin analogue; also called Ex. No. 23

- Lipogenesis 1% HSA (% rel to HI) [1]: 78.6 % rel to HI
- relative binding affinity (% rel to HI) [2]: 88.1 % rel to HI
- relative binding affinity (% rel to HI) [3]: 164 % rel to HI
- relative binding affinity (% rel to HI) [4]: 274 % rel to HI
- relative binding affinity (% rel to HI) [5]: 24 % rel to HI
- relative binding affinity (% rel to HI) [6]: 211 % rel to HI
B2: A8R, A22K(N(eps)tetradecanedioyl-4xgGlu), B3E, B27E, B28E, B29R, desB30 human insulin (ligand)
chain 1: GIVEQCCRSICSLYQLENYCNK
chain 2: FVEQHLCGSHLVEALYLVCGERGFFYEER
modifications: not fully specified; Lys A22 acylated on N(eps) with tetradecanedioyl-4xgGlu
notes: Two-chain acylated insulin analogue; also called Ex. No. 24

- Lipogenesis 1% HSA (% rel to HI) [1]: 3.7 % rel to HI
- relative binding affinity (% rel to HI) [2]: 16.5 % rel to HI
- relative binding affinity (% rel to HI) [3]: 23.2 % rel to HI
- relative binding affinity (% rel to HI) [4]: 114 % rel to HI
- relative binding affinity (% rel to HI) [5]: 14.3 % rel to HI
- relative binding affinity (% rel to HI) [6]: 5.4 % rel to HI
B3: A14E, A22K(N(eps)hexadecanedioyl-4xgGlu), B3E, B27E, B28E, B29R, desB30 human insulin (ligand)
chain 1: GIVEQCCTSICSLEQLENYCNK
chain 2: FVEQHLCGSHLVEALYLVCGERGFFYEER
modifications: not fully specified; Lys A22 acylated on N(eps) with hexadecanedioyl-4xgGlu
notes: Two-chain acylated insulin analogue; also called Ex. No. 27

- Lipogenesis 1% HSA (% rel to HI) [1]: 70.9 % rel to HI
- relative binding affinity (% rel to HI) [2]: 108 % rel to HI
- relative binding affinity (% rel to HI) [3]: 174 % rel to HI
- relative binding affinity (% rel to HI) [4]: 294 % rel to HI
- relative binding affinity (% rel to HI) [5]: 10.8 % rel to HI
- relative binding affinity (% rel to HI) [6]: 237 % rel to HI
B4: A8R, A22K(N(eps)tetradecanedioyl-4xgGlu), B3E, B26E, B29R, desB30 human insulin (ligand)
chain 1: GIVEQCCRSICSLYQLENYCNK
chain 2: FVEQHLCGSHLVEALYLVCGERGFFETPR
modifications: not fully specified; Lys A22 acylated on N(eps) with tetradecanedioyl-4xgGlu
notes: Two-chain acylated insulin analogue; also called Ex. No. 15
